Data as given in PMC3480987 (Molecular microbiology, 2012).
Substitutions are numbered along the chain they refer to. Numbers in names are those of the source. Read-outs that look alike come from different tables or passages of the source.

B1: Thioredoxin-UgtP fusion protein (wild type) (enzyme, B. subtilis, UniProt P54166 1-382, looked up)
chain: MNTNKRVLILTANYGNGHVQVAKTLYEQCVRLGFQHVTVSNLYQESNPIVSEVTQYLYLKSFSIGKQFYRLFYYGVDKIYNKRKFNIYFKMGNKRLGELVDEHQPDIIINTFPMIVVPEYRRRTGRVIPTFNVMTDFCLHKIWVHENVDKYYVATDYVKEKLLEIGTHPSNVKITGIPIRPQFEESMPVGPIYKKYNLSPNKKVLLIMAGAHGVLKNVKELCENLVKDDQVQVVVVCGKNTALKESLSALEAENGDKLKVLGYVERIDELFRITDCMITKPGGITLTEATAIGVPVILYKPVPGQEKENANFFEDRGAAIVVNRHEEILESVTSLLADEDTLHRMKKNIKDLHLANSSEVILEDILKESEMMTAKQKAKVLS
modifications: biotin on the copy immobilised on the biosensor (site not stated)
B2: UgtP (F112A V117A E306A N309A) (enzyme, B. subtilis, UniProt P54166 1-382, looked up)
chain: B1 chain with F112A, V117A, E306A, N309A
modifications: biotin on the copy immobilised on the biosensor (site not stated)

Columns and labels:
[1] = target: the molecule itself; assay: sucrose density gradient centrifugation + SEC
BLI [2] = target: the molecule itself; assay: BLI
BLI [3] = target: the molecule itself; assay: BLI; remark: listed apart in the source

Protein	stoichiometry N [1] [monomers]	Kd (BLI [2]) [nM]	Kd (BLI [3]) [nM]
B1	~8.8	69	17
B2		21	16
